A short description of this assay: Pull-down with biotinylated CS-E. Conditions: COS-7 cell lysates, immunoblot. It is filed as binding. An excerpt: Pull down assays can be useful for identifying proteins which bind to CS (e.g. CS-A, CS-C, or CS-E). Pull down assays can also be used for identifying agents that disrupt the binding between CS and a known binding partner. Full-length human p75 cDNA (amino acids 1-427; Open Biosystems) is ligated into a pcDNA3 vector (Invitrogen), modified to fuse an HA tag to the 5′ end of the insert. Human NgR (amino acids 27-473; imaGenes) is ligated into a modified pAPtag-5 vector (GenHunter) which fuses a secretion signal sequence and a c-myc tag to the 3′ end of the insert. COS-7 cells are transfected with either NgR-myc, p75-HA, or both using the Lipofectamine (Invitrogen) method. Cells are lysed about 2 days after transfection with 0.5-2% Triton X-100 in PBS containing a protease inhibitor mixture (Roche) by rocking for 15-90 min at 4° C. The lysates are clarified by centrifugation at 5-25,000 rpm for 1-30 min.
Biotin is attached to the free amino group of the residual core peptides of CS-C and CS-E polysaccharides (Seikagaku). […]
Biotinylated CS-C or CS-E (approximately 280 μg each) in 100-500 μl of PBS is added to streptavidin agarose resin (about 140 μl; Pierce) and incubated at room temperature for about 1 hr. […] NgR-myc and p75-HA are detected by immunoblotting with myc-tag (Cell Signaling) or HA-tag (Sigma) antibodies.

This note sets out measurements from patent publication US20110020359A1, “METHODS AND COMPOSITIONS FOR TREATING NEURONAL DAMAGE OR DEGENERATION” (California Institute of Technology, priority 2009, published 2011).

B1: myc-NgR1: full-length myc-tagged human NgR expressed in COS-7 cells (protein, UniProt Q9BZR6 1-473, looked up)
chain: MKRASAGGSRLLAWVLWLQAWQVAAPCPGACVCYNEPKVTTSCPQQGLQAVPVGIPAASQRIFLHGNRISHVPAASFRACRNLTILWLHSNVLARIDAAAFTGLALLEQLDLSDNAQLRSVDPATFHGLGRLHTLHLDRCGLQELGPGLFRGLAALQYLYLQDNALQALPDDTFRDLGNLTHLFLHGNRISSVPERAFRGLHSLDRLLLHQNRVAHVHPHAFRDLGRLMTLYLFANNLSALPTEALAPLRALQYLRLNDNPWVCDCRARPLWAWLQKFRGSSSEVPCSLPQRLAGRDLKRLAANDLQGCAVATGPYHPIWTGRATDEEPLGLPKCCQPDAADKASVLEPGRPASAGNALKGRVPPGDSPPGNGSGPRHINDSPFGTLPGSAEPPLTAVRPEGSEPPGFPTSGPRRRPGCSRKNRTRSHCRLGQAGSGGGGTGDSEGSGALPSLTCSLTPLGLALVLWTVLGPC
modifications: full-length myc tag
notes: full-length myc-tagged human NgR expressed in COS-7 cells
Turning to B1, the “pull-down by CS-E” value is given as “Pull-down of full-length, native NgR by CS-E”.

B2: Full-length EphB3: full-length Ephrin receptor B3 (protein, UniProt P54753 1-998, looked up)
chain: MARARPPPPPSPPPGLLPLLPPLLLLPLLLLPAGCRALEETLMDTKWVTSELAWTSHPESGWEEVSGYDEAMNPIRTYQVCNVRESSQNNWLRTGFIWRRDVQRVYVELKFTVRDCNSIPNIPGSCKETFNLFYYEADSDVASASSPFWMENPYVKVDTIAPDESFSRLDAGRVNTKVRSFGPLSKAGFYLAFQDQGACMSLISVRAFYKKCASTTAGFALFPETLTGAEPTSLVIAPGTCIPNAVEVSVPLKLYCNGDGEWMVPVGACTCATGHEPAAKESQCRPCPPGSYKAKQGEGPCLPCPPNSRTTSPAASICTCHNNFYRADSDSADSACTTVPSPPRGVISNVNETSLILEWSEPRDLGGRDDLLYNVICKKCHGAGGASACSRCDDNVEFVPRQLGLTERRVHISHLLAHTRYTFEVQAVNGVSGKSPLPPRYAAVNITTNQAAPSEVPTLRLHSSSGSSLTLSWAPPERPNGVILDYEMKYFEKSEGIASTVTSQMNSVQLDGLRPDARYVVQVRARTVAGYGQYSRPAEFETTSERGSGAQQLQEQLPLIVGSATAGLVFVVAVVVIAIVCLRKQRHGSDSEYTEKLQQYIAPGMKVYIDPFTYEDPNEAVREFAKEIDVSCVKIEEVIGAGEFGEVCRGRLKQPGRREVFVAIKTLKVGYTERQRRDFLSEASIMGQFDHPNIIRLEGVVTKSRPVMILTEFMENCALDSFLRLNDGQFTVIQLVGMLRGIAAGMKYLSEMNYVHRDLAARNILVNSNLVCKVSDFGLSRFLEDDPSDPTYTSSLGGKIPIRWTAPEAIAYRKFTSASDVWSYGIVMWEVMSYGERPYWDMSNQDVINAVEQDYRLPPPMDCPTALHQLMLDCWVRDRNLRPKFSQIVNTLDKLIRNAASLKVIASAQSGMSQPLLDRTVPDYTTFTTVGDWLDAIKMGRYKESFVSAGFASFDLVAQMTAEDLLRIGVTLAGHQKKILSSIQDMRLQMNQTLPVQV
modifications: full-length
notes: full-length Ephrin receptor B3
As for B2, the “pull-down by CS-E” value was “is pulled down”.
